Molecular target: Human RhoG (residues 1-188) with N-terminal His-SUMO tag, pre-loaded with GDP, P84095
Sequence (P84095 1-188): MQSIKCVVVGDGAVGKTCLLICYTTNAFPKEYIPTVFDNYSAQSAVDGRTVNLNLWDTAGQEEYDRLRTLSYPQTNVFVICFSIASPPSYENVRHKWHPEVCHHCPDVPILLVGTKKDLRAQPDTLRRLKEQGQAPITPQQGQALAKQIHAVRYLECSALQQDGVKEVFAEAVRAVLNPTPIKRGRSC

| Protein | nucleotide exchange activity (GTP-GDP nucleotide exchange assay, MANT-GTP fluorescence, 60 minutes) |
| --- | --- |
| Human full-length ARHGEF26 (wild-type) with N-terminal His-SUMO tag (protein) MDGESEVDFSSNSITPLWRRRSIPQPHQVLGRSKPRPQSYQSPNGLLITDFPVEDGGTLLAAQIPAQVPTASDSRTVHRSPLLLGAQRRAVANGGTASPEYRAASPRLRRPKSPKLPKAVPGGSPKSPANGAVTLPAPPPPPVLRPPRTPNAPAPCTPEEDLTGLTASPVPSPTANGLAANNDSPGSGSQSGRKAKDPERGLFPGPQKSSSEQKLPLQRLPSQENELLENPSVVLSTNSPAALKVGKQQIIPKSLASEIKISKSNNQNVEPHKRLLKVRSMVEGLGGPLGHAGEESEVDNDVDSPGSLRRGLRSTSYRRAVVSGFDFDSPTSSKKKNRMSQPVLKVVMEDKEKFSSLGRIKKKMLKGQGTFDGEENAVLYQNYKEKALDIDSDEESEPKEQKSDEKIVIHHKPLRSTWSQLSAVKRKGLSQTVSQEERKRQEAIFEVISSEHSYLLSLEILIRMFKNSKELSDTMTKTERHHLFSNITDVCEASKKFFIELEARHQNNIFIDDISDIVEKHTASTFDPYVKYCTNEVYQQRTLQKLLATNPSFKEVLSRIESHEDCRNLPMISFLILPMQRVTRLPLLMDTICQKTPKDSPKYEVCKRALKEVSKLVRLCNEGARKMERTEMMYTINSQLEFKIKPFPLVSSSRWLVKRGELTAYVEDTVLFSRRTSKQQVYFFLFNDVLIITKKKSEESYNVNDYSLRDQLLVESCDNEELNSSPGKNSSTMLYSRQSSASHLFTLTVLSNHANEKVEMLLGAETQSERARWITALGHSSGKPPADRTSLTQVEIVRSFTAKQPDELSLQVADVVLIYQRVSDGWYEGERLRDGERGWFPMECAKEITCQATIDKNVERMGRLLGLETNV | we observed no significant difference in nucleotide exchange activity between wild-type and 29Leu mutant ARHGEF26 |
| Human full-length ARHGEF26 29Leu mutant (p.Val29Leu) with N-terminal His-SUMO tag (protein) MDGESEVDFSSNSITPLWRRRSIPQPHQLLGRSKPRPQSYQSPNGLLITDFPVEDGGTLLAAQIPAQVPTASDSRTVHRSPLLLGAQRRAVANGGTASPEYRAASPRLRRPKSPKLPKAVPGGSPKSPANGAVTLPAPPPPPVLRPPRTPNAPAPCTPEEDLTGLTASPVPSPTANGLAANNDSPGSGSQSGRKAKDPERGLFPGPQKSSSEQKLPLQRLPSQENELLENPSVVLSTNSPAALKVGKQQIIPKSLASEIKISKSNNQNVEPHKRLLKVRSMVEGLGGPLGHAGEESEVDNDVDSPGSLRRGLRSTSYRRAVVSGFDFDSPTSSKKKNRMSQPVLKVVMEDKEKFSSLGRIKKKMLKGQGTFDGEENAVLYQNYKEKALDIDSDEESEPKEQKSDEKIVIHHKPLRSTWSQLSAVKRKGLSQTVSQEERKRQEAIFEVISSEHSYLLSLEILIRMFKNSKELSDTMTKTERHHLFSNITDVCEASKKFFIELEARHQNNIFIDDISDIVEKHTASTFDPYVKYCTNEVYQQRTLQKLLATNPSFKEVLSRIESHEDCRNLPMISFLILPMQRVTRLPLLMDTICQKTPKDSPKYEVCKRALKEVSKLVRLCNEGARKMERTEMMYTINSQLEFKIKPFPLVSSSRWLVKRGELTAYVEDTVLFSRRTSKQQVYFFLFNDVLIITKKKSEESYNVNDYSLRDQLLVESCDNEELNSSPGKNSSTMLYSRQSSASHLFTLTVLSNHANEKVEMLLGAETQSERARWITALGHSSGKPPADRTSLTQVEIVRSFTAKQPDELSLQVADVVLIYQRVSDGWYEGERLRDGERGWFPMECAKEITCQATIDKNVERMGRLLGLETNV | we observed no significant difference in nucleotide exchange activity between wild-type and 29Leu mutant ARHGEF26 |

Reference: patent publication US20190345557
